Tested on: K4 kissing-loop RNA reporter
Assay: apparent KD of K4 kissing-loop reporter; higher = weaker reporter binding
Details: Eterna round: R107
Protocol: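 RNA-MaP round R107: designed RNA switches with theophylline, tryptophan, arginine or FMN aptamers are transcribed on-chip within common flanks. They are titrated with a labelled K4 kissing-loop RNA reporter in RNA-MaP buffer (100 mM Tris pH 7.5, 80 mM KCl, 4 mM MgCl2), without ligand or with the indicated ligand. Median apparent KD per design.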

[1] = input ligand: theophylline 20 uM
[2] = input ligand: tryptophan 2.4 mM
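Further: bound reporter read as fluorescence of individual clusters on recovered sequencing chips by microscopy, with normalized cluster intensities fitted with a binding model.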

Sequence	apparent KD of K4 kissing-loop reporter (input ligand: FMN 200 uM) [nM]	apparent KD of K4 kissing-loop reporter (input ligand: arginine 13.2 mM) [nM]	apparent KD of K4 kissing-loop reporter (input ligand: none) [nM]	apparent KD of K4 kissing-loop reporter [1] [nM]	apparent KD of K4 kissing-loop reporter [2] [nM]
GCGGCGGGCCAAGGAUAUAUAUUGGAGUGAUGUUGUUCAUUUAUUUGAGCUAGUGAUGUUGGUCAAAUAGAAGGUGGCCCGCCGC [whbob_Ex_FMNB__2th217]	56.5	34.6	59.3	44.8	62
AUUUUCAUUUUAUUAUAUAACUUUUCAGAAGGAGCGUGGAAGUUCACAGGUAGGUCGCUGAAUAUUGGACUAGUGAUGUUAGUUA [JR_Nu_SSArginiA_Sub022]	202	244	230	259	207
GUUACGCAUGGAAGGAGCGCUCUCAUACUUAAUAACACAGUGAUGUUGUGAAUUUGUAUAAAGCAGGUAGGUCGCCAUGUGUAAC [Ex Arginine B K4 7]	417	323	424	379	346
CCUAUCUCGUAGGAUACCAGACUAUGAUCUAUGAUCAAUGCCAUCACCGAGUGAUGUUCGGUCCCUUGGCAGCCUAUGAGAUGGG [#13 K4 Theophylline B Exclusion]	166	147	159	221	154
GAGUCGGCACAAGGAUAUAGGUGUAGUGAUGUUAUGUCUCCUUGACUCACUCGUUACCCUCAACGUCUAGAAGGUGUGAAUGCAG [theeternabot_exclusion_KL_FMN_B_46]	328	240	290	229	251
GUAGAUAGGCAACAUCCCUAGUCUACAGACUAGGAUAUCAGGAAACUGAGAAGGAGUCUCCUUGCAGUGAUGUUGCAAGAAUAAU [[F]''-[K]'-[F]'-[F1]-[F2]-[K1]-[K2]_Design5]	185	181	200	83.6	161
CGUUUAUUGCAGGAUACCAGUACCCAUUAUGUACGUUUAUAGUAGAGUGAUGUUCUAAAGUACCCUUGGCAGCUUCCCGUGACCC [#22 K4 Theophylline B Exclusion]	119	193	142	188	90.3
UGAUACCAGACGGCCGCCACUCCUGCAGUCAAAGACUGCUAAAAGGAAAUCGUCCAGUGAUGUUGGAGGACCGGGUCUGGUAUCU [TrypBX 14 #SwitchBubble #Palindromic #StaticStem]	647	738	1150	685	372
AGUACAACUGCGGCCGCCACUCAACGCAGAUCAAAGAUCUGCAUUCACUCAGUGAUGUUGAGUGAGAGGACCGGGCAGUUGUACA [Omei KL Tryp B SS B v3]	855	718	742	645	166
GCGGUGUUAUGCCCGAGGGUAUAGUUGCCAAAGGAUAUGAUUGUUGUCAGAAGGUUGCGCUUGAUCAGUGAUGUUGGUCUCCAAC [theeternabot_sameState_KL_FMN_A_12]	398	275	373	342	337
AUUCGUUUAUGUGAUACCAGACUUUGCAGUGAUGUUGCAUUAAUUUUUGAUUAUUAGUUUGUCCCUUGGCAGCACUAUUUAUUUA [JR_SSTheophyB_Sub004]	40.2	81.5	44.8	80.1	36.6
GGUAGCAUGGCGGCCGCCACUGGAGAGUGAUGUUCUCCACUAGGUUACAACGCCGGACAGUCCACCAGGACCGGGCCAUGCUACC	140	106	131	129	436
CGCCGCAAGGCGAGCGCUCCCACUCCGGAAGGAGCGCCCGCAAGGGCAGGUAGGUCGCCGGAGUGAUGUUCCGGUGGAGGGCUCG [#2 Exclusion - Arginine A Attempt #15 (Inspired by Omei)]	395	207	376	222	439
AGACUACCACACUGUCAAUAGACAGUGAACUAGGAUAUGCUGAUAAGCAGAAGGAGUGAUGUUCCUCGGUAGUCAAUAAAAUAAU [FmnAX 13 C67]	419	255	303	346	235
AUAGAAAAGUGGCACCCUCACUAAAACAGUCGAGGACCGGUACGGCCGCCACUCGCGCGCUUUAGUGAUGUUAAAGCUAGGCGGA	269	228	265	259	245
AUACGUUUAAGUGAUACCAGACAUGUGAGUGAUGUUUACAUAUAUAUUUAAUAUUUAGCUGUCCCUUGGCAGCACAGUUUAUUUA [JR_ExcTheophyB_Sub001]	350	374	441	399	308

Sequence	apparent KD of K4 kissing-loop reporter (input ligand: FMN 200 uM) [nM]	apparent KD of K4 kissing-loop reporter (input ligand: arginine 13.2 mM) [nM]	apparent KD of K4 kissing-loop reporter (input ligand: none) [nM]	apparent KD of K4 kissing-loop reporter [1] [nM]	apparent KD of K4 kissing-loop reporter [2] [nM]
UGUCAUUGGUCUGAUACCAGAAGAAAUCUGGAGUGAUGUUCCAAGUACGACAAAAGUCGCUUCCCUUGGCAGCAGACCGAUGACU [TheoBS 21 #SwitchBubble 13 #StaticStem]	705	510	638	406	683
GCCGUACGCAUGGAUACCAGUCUUAGAGUGAUGUUCUAAACGAUUGCGCCUGGAUCAAUGGACCCUUGGCAGCCAUGCGUACGGC	130	119	129	92.4	154
AGUGAUGUUUUUUUUAAGAGUGAUGUUUUUCGAGGACCGGUACGGCCGCCACUCGAGUGAUGAGUGCGUUGUUGUGAUGUUUAGU [#11 K4 Tryptophan A Exclusion]	438	362	473	413	246
GGGAGUAGUGCGGCCGCCACUGAGAAAGAAGAAGAAUAUAGUGAUGUUAUAUAGGAAAGGAAGAACAGGACCGGGCAUUAGAGGG [SSTRyptB.C]	163	171	147	243	131
CCUAUCUCAUACGAUACCAGUCAACGAGUGAUGUUCGAAUAAAUAAAUUUGCCAUAUAAUGACCCUUGGCAGCGUAUGGGAUAGG [Ex Theophylline B K4 14]	352	373	337	431	334
UAAUCCUAGUGAUAAUAAUCAAGUGGUGGGCGAGGACCGGUACGGCCGCCACUCGAAAAUGCAGUGAUGUUGUAAUCCGGAUAAU [Exclusion - Tryptophan A (Freestyle 5)]	798	874	1080	872	450
AUUUAGACGAGUGAUGUUCGUGUUAUUACAGAGGAUAUGCGUAAUUGCAGAAGGCUGUAUUUAUAUAUGUUAUGUAAUUUUAAAA [JR_ExcFMNA_Sub007]	89.5	108	88	99.4	73.2
UGGAGUUGACGAAAAGUCAACUCCUGAGAAGGAGCGGACGAAAGUCCAGGUAGGUCGCUCACUACCAGUGAUGUUGGUACUGAAA	187	228	203	229	164
UGACUGGAUGGAAGGAGCGCUAAACUCCUAGUGAUGUUAGGGAUAUGAGGCAAAGCCUUGAGGCAGGUAGGUCGCCAUCUAGUCU [FiskerMod 25 - Jieux - Same State - Arginine B]	191	117	131	141	145
GGGUGGCAGGCGGCCGCCACUCUGAGCACCCACUGAGUGAUGUUCGUGGCGUAAGACUGUUCGUAGAGGACCGGGUUUGUUGUUC [Same State Tryptophan B GF 23]	203	143	214	306	205
AACUGUUGGGAAGGAUAUUAUGGUGGCUAAAUCCAGUGAUGUUGGAAAUCGGUACUCGCCCACCUUUAAGAAGGUCCGUGAAAGA [theeternabot_sameState_KL_FMN_B_6]	152	164	151	199	130
CGUGAGUGAUGUUCACGAGGCUUGUUUCUAGAGGAUAUUCACUUUAGAAGAAGGCUAGAGAUCUAUAUCGUGAUGCUCGAUAACG [FMN A Ex t1]	295	247	197	260	155
CACCAUGAAUUCUCUAGGAGUGAUGUUUUUCGAGGACCGGUACGGCCGCCACUCGGACGAGGAACGUGGGAGCGGCGAAAAGACU [xzzmullin]	70.6	64	285	83.9	121
UGACAUUGCUCAGAUACCAGUCAUGAGGAUCACCCAUGGGCCAAACGUACAAUAAUAAAUGACCCUUGGCAGCUGAGCAAUGUCU [TheoBX 14]	64.5	36.9	55.4	135	62.8
GGCAGUGAUGUUGCCUAAGCAAUGCAUGCGGAGGAUAUUCGUUUGGGAAGAAGGCCGCAGCGUUCUCUCGAGUGAUGUUCGAGUA [Same State FMN A GF 20]	155	141	153	158	126

— the supplement of paper PMC9170038
